# Reference: PMC5090862, “Coenzyme Engineering of a Hyperthermophilic 6-Phosphogluconate Dehydrogenase from NADP^+ to NAD^+ with Its Application to Biobatteries” (Scientific Reports, 2016)
# Key:
# [1] = target: T1, Tm6PGDH (6-phosphogluconate dehydrogenase from Thermotoga maritima) (Thermotoga maritima, UniProt Q9WYR9, N32D/R33L/T34S); experiment: NAD(P)H formation at […] nm, Michaelis-Menten fit; format: biochemical; conditions: 2 mM 6-phosphogluconate, 5 mM MgCl2, 0.5 mM MnCl2, 100 mM HEPES pH 7.5, 70 °C; apparent Km; read-out: Km (mM) / NADP^+
# T1 construct: gene TM_0438; full length in pET20b, C-terminal His tag (LEHHHHHH from primer), E. coli BL21(DE3), Ni-NTA; primers encode N-terminus MKSHIGLI and C-terminus NWEEGEIG before the tag
# From the text: (§1) (6-phosphogluconate dehydrogenase from Thermotoga maritima)
# [2] = substrate: NC(=O)c1ccc[n+]([C@@H]2O[C@H](COP(=O)(O)OP(=O)(O)OC[C@H]3O[C@@H](n4cnc5c(N)ncnc54)[C@H](O)[C@@H]3O)[C@@H](O)[C@H]2O)c1; experiment: purified protein; format: biochemical, Thermotoga maritima; conditions: 2 mM 6-phosphogluconate, 5 mM MgCl2, 0.5 mM MnCl2, 100 mM HEPES pH 7.5, 70 °C, apparent Km
# From the text: as §1
# [3] = substrate: NC(=O)c1ccc[n+]([C@@H]2O[C@H](COP(=O)(O)OP(=O)(O)OC[C@H]3O[C@@H](n4cnc5c(N)ncnc54)[C@H](OP(=O)(O)O)[C@@H]3O)[C@@H](O)[C@H]2O)c1; experiment: purified protein; format: biochemical, Thermotoga maritima; conditions: 2 mM 6-phosphogluconate, 5 mM MgCl2, 0.5 mM MnCl2, 100 mM HEPES pH 7.5, 70 °C, apparent Km
# From the text: as §1
Molecule,Km [1],Km [2],kcat [2],kcat/Km [2],Km [3],kcat [3],kcat/Km [3]
NC(=O)c1ccc[n+]([C@@H]2O[C@H](COP(=O)(O)OP(=O)(O)OC[C@H]3O[C@@H](n4cnc5c(N)ncnc54)[C@H](OP(=O)(O)O)[C@@H]3O)[C@@H](O)[C@H]2O)c1 [NADP^+],> 100 mM,,,,,,
"Tm6PGDH (6-phosphogluconate dehydrogenase from Thermotoga maritima) (Thermotoga maritima MSB8) (protein, full length in pET20b, C-terminal His tag (LEHHHHHH from primer), E. coli BL21(DE3), Ni-NTA; primers encode N-terminus MKSHIGLI and C-terminus NWEEGEIG before the tag) MKSHIGLIGLAVMGQNLALNIARKGYKVSVYNRTAQRTEEFVKNRVTNEEIEPHYDIESFVKSLERPRKIILMVKAGKPVDDTISQLLPHLEPGDLIIDGGNSHYMDTERRFKELSEKGILFLGMGVSGGEYGALHGPSLMPGGSREAYNLVEEILLEIAAKTEDGPCCTYVGERSAGHFVKMVHNGIEYAIMQAIAEVYHIMRDVLSLSSEEMSSIFEEWNRGELSSFLVEITYKILRKKDEETGKPMVDVILDKAEQKGTGKWTSQAALDLGIPTPSINLAVVERVISHFKDIRTRLSKLYNKRRSATQGSEEFLRDLRNSLFFAMFMAFSQGMWLIAEASKEFGYGVSLSEVLRIWKGGCIIRAKLIDTLRRYISNENAYLLENEEVMNLLKGKIDSLKNILKASIENEIPVPVLSSSYNYFMSLTEERLPANLIQAQRDFFGAHTFERVDREGVFHINWEEGEIG",,4.3 ± 0.4 mM,23.3 ± 2 s⁻¹,5400 M⁻¹ s⁻¹,0.005 ± 0.0004 mM,17.6 ± 0.7 s⁻¹,3.52e+06 M⁻¹ s⁻¹
"Tm6PGDH (6-phosphogluconate dehydrogenase from Thermotoga maritima) (Thermotoga maritima MSB8; N32D) (protein, full length in pET20b, C-terminal His tag (LEHHHHHH from primer), E. coli BL21(DE3), Ni-NTA; primers encode N-terminus MKSHIGLI and C-terminus NWEEGEIG before the tag) MKSHIGLIGLAVMGQNLALNIARKGYKVSVYDRTAQRTEEFVKNRVTNEEIEPHYDIESFVKSLERPRKIILMVKAGKPVDDTISQLLPHLEPGDLIIDGGNSHYMDTERRFKELSEKGILFLGMGVSGGEYGALHGPSLMPGGSREAYNLVEEILLEIAAKTEDGPCCTYVGERSAGHFVKMVHNGIEYAIMQAIAEVYHIMRDVLSLSSEEMSSIFEEWNRGELSSFLVEITYKILRKKDEETGKPMVDVILDKAEQKGTGKWTSQAALDLGIPTPSINLAVVERVISHFKDIRTRLSKLYNKRRSATQGSEEFLRDLRNSLFFAMFMAFSQGMWLIAEASKEFGYGVSLSEVLRIWKGGCIIRAKLIDTLRRYISNENAYLLENEEVMNLLKGKIDSLKNILKASIENEIPVPVLSSSYNYFMSLTEERLPANLIQAQRDFFGAHTFERVDREGVFHINWEEGEIG",,4.0 ± 0.1 mM,29.3 ± 1.2 s⁻¹,7300 M⁻¹ s⁻¹,2.3 ± 0.1 mM,16.7 ± 1 s⁻¹,7300 M⁻¹ s⁻¹
"Tm6PGDH (6-phosphogluconate dehydrogenase from Thermotoga maritima) (Thermotoga maritima MSB8; N32D/R33L/T34S) (protein, full length in pET20b, C-terminal His tag (LEHHHHHH from primer), E. coli BL21(DE3), Ni-NTA; primers encode N-terminus MKSHIGLI and C-terminus NWEEGEIG before the tag) MKSHIGLIGLAVMGQNLALNIARKGYKVSVYDLSAQRTEEFVKNRVTNEEIEPHYDIESFVKSLERPRKIILMVKAGKPVDDTISQLLPHLEPGDLIIDGGNSHYMDTERRFKELSEKGILFLGMGVSGGEYGALHGPSLMPGGSREAYNLVEEILLEIAAKTEDGPCCTYVGERSAGHFVKMVHNGIEYAIMQAIAEVYHIMRDVLSLSSEEMSSIFEEWNRGELSSFLVEITYKILRKKDEETGKPMVDVILDKAEQKGTGKWTSQAALDLGIPTPSINLAVVERVISHFKDIRTRLSKLYNKRRSATQGSEEFLRDLRNSLFFAMFMAFSQGMWLIAEASKEFGYGVSLSEVLRIWKGGCIIRAKLIDTLRRYISNENAYLLENEEVMNLLKGKIDSLKNILKASIENEIPVPVLSSSYNYFMSLTEERLPANLIQAQRDFFGAHTFERVDREGVFHINWEEGEIG",,7.5 ± 0.8 mM,25.4 ± 1.4 s⁻¹,3400 M⁻¹ s⁻¹,,,
"Tm6PGDH (6-phosphogluconate dehydrogenase from Thermotoga maritima) (Thermotoga maritima MSB8; N32D/R33I/T34I) (protein, full length in pET20b, C-terminal His tag (LEHHHHHH from primer), E. coli BL21(DE3), Ni-NTA; primers encode N-terminus MKSHIGLI and C-terminus NWEEGEIG before the tag) MKSHIGLIGLAVMGQNLALNIARKGYKVSVYDIIAQRTEEFVKNRVTNEEIEPHYDIESFVKSLERPRKIILMVKAGKPVDDTISQLLPHLEPGDLIIDGGNSHYMDTERRFKELSEKGILFLGMGVSGGEYGALHGPSLMPGGSREAYNLVEEILLEIAAKTEDGPCCTYVGERSAGHFVKMVHNGIEYAIMQAIAEVYHIMRDVLSLSSEEMSSIFEEWNRGELSSFLVEITYKILRKKDEETGKPMVDVILDKAEQKGTGKWTSQAALDLGIPTPSINLAVVERVISHFKDIRTRLSKLYNKRRSATQGSEEFLRDLRNSLFFAMFMAFSQGMWLIAEASKEFGYGVSLSEVLRIWKGGCIIRAKLIDTLRRYISNENAYLLENEEVMNLLKGKIDSLKNILKASIENEIPVPVLSSSYNYFMSLTEERLPANLIQAQRDFFGAHTFERVDREGVFHINWEEGEIG",,3.9 ± 0.4 mM,32.2 ± 2.2 s⁻¹,8300 M⁻¹ s⁻¹,70 ± 17 mM,15.9 ± 5.8 s⁻¹,200 M⁻¹ s⁻¹
"Tm6PGDH (6-phosphogluconate dehydrogenase from Thermotoga maritima) (Thermotoga maritima MSB8; N32E/R33I/T34I) (protein, full length in pET20b, C-terminal His tag (LEHHHHHH from primer), E. coli BL21(DE3), Ni-NTA; primers encode N-terminus MKSHIGLI and C-terminus NWEEGEIG before the tag) MKSHIGLIGLAVMGQNLALNIARKGYKVSVYEIIAQRTEEFVKNRVTNEEIEPHYDIESFVKSLERPRKIILMVKAGKPVDDTISQLLPHLEPGDLIIDGGNSHYMDTERRFKELSEKGILFLGMGVSGGEYGALHGPSLMPGGSREAYNLVEEILLEIAAKTEDGPCCTYVGERSAGHFVKMVHNGIEYAIMQAIAEVYHIMRDVLSLSSEEMSSIFEEWNRGELSSFLVEITYKILRKKDEETGKPMVDVILDKAEQKGTGKWTSQAALDLGIPTPSINLAVVERVISHFKDIRTRLSKLYNKRRSATQGSEEFLRDLRNSLFFAMFMAFSQGMWLIAEASKEFGYGVSLSEVLRIWKGGCIIRAKLIDTLRRYISNENAYLLENEEVMNLLKGKIDSLKNILKASIENEIPVPVLSSSYNYFMSLTEERLPANLIQAQRDFFGAHTFERVDREGVFHINWEEGEIG",,2.5 ± 0.2 mM,47.9 ± 2.2 s⁻¹,19200 M⁻¹ s⁻¹,79 ± 20 mM,15.9 ± 7.9 s⁻¹,200 M⁻¹ s⁻¹
